Article PMC8041770, “An engineered ligand trap inhibits leukemia inhibitory factor as pancreatic cancer treatment strategy” (Communications Biology, 2021)

Target: yeast-displayed mouse LIF (mLIF, Ser24 to Phe203) (mouse, UniProt P09056 24-203)
Experiment: flow cytometry on cells; LIF displayed on yeast (EBY100), soluble Fc fusion titrated in PBS with 1 mg/ml BSA, Fc detected with fluorescent secondary antibody; apparent Kd by non-linear regression
Details: one partner purified

B1: mLIFR-Fc (mouse LIFR CBM I–Ig-like–CBM II fused to an antibody Fc domain) (Fc fusion)
chain: LKRGVQDLKCTTNNMRVWDCTWPAPLGVSPGTVKDICIKDRFHSCHPLETTNVKIPALSPGDHEVTINYLNGFQSKFTLNEKDVSLIPETPEILDLSADFFTSSLLLKWNDRGSALPHPSNATWEIKVLQNPRTEPVALVLLNTMLSGKDTVQHWNWTSDLPLQCATHSVSIRWHIDSPHFSGYKEWSDWSPLKNISWIRNTETNVFPQDKVVLAGSNMTICCMSPTKVLSGQIGNTLRPLIHLYGQTVAIHILNIPVSENSGTNIIFITDDDVYGTVVFAGYPPDVPQKLSCETHDLKEIICSWNPGRITGLVGPRNTEYTLFESISGKSAVFHRIEGLTNETYRLGVQMHPGQEIHNFTLTGRNPLGQAQSAVVINVTERVAPHDPTSLKVKDINSTVVTFSWYLPGNFTKINLLCQIEICKANSKKEVRNATIRGAEDSTYHVAVDKLNPYTAYTFRVRCSSKTFWKWSRWSDEKRHLTTEAT
notes: signal peptide in the construct; mouse LIF receptor (mLIFR), three most N-terminal extracellular domains CBM I–Ig-like–CBM II, Met1 to Thr529; also called soluble mLIFR-Fc; mLIFR mIgG2a Fc; source: Expi293F, transfected (pAdd2), purified from medium (Protein-A Sepharose)
Kd: 0.16 ± 0.02 nM
